Assay [1] deals with T1, PP1γ catalytic domain (residues 7–300)-H6 (mouse, UniProt P63087 7-300).
T1 construct: mouse PP1γ catalytic domain, residues 7-300; no tag cleavage is described; also called PP1 catalytic domain; protein phosphatase 1; source: E. coli T7 Express lysY/Iq, purified (Ni-NTA, SEC)
Put plainly: ITC; 25 °C; 50 mM HEPES pH 8.0, 500 mM NaCl, 0.5 mM TCEP; 12 x 3 μl injections; peptide or pORF38-NLT titrated into PP1γ catalytic domain; one-site binding model; syringe and cell contents in Table S1. The following applies: both partners purified. For orientation: In ITC the heat of successive injections is recorded.

Assay [2] addresses T1, PP1γ catalytic domain (residues …). Put plainly: fluorescence polarisation; competition: serial dilution of competitor added to a pre-formed complex of 2 nM FITC-GADD34 peptide and 250 nM PP1γ catalytic domain (final); 50 mM HEPES pH 8.0, 500 mM NaCl, 0.05% TWEEN-20; 27 °C. The settings on record: both partners purified.
For assay [3] the target is unchanged. Put plainly: fluorescence polarisation; direct titration of PP1γ catalytic domain against FITC-GADD34 peptide in the buffer optimised for pUL21 (Tris pH 8.5 in place of HEPES pH 8). The settings on record: both partners purified.
The target is the same in assay [4]. In words: fluorescence polarisation; direct titration: 2 nM FITC-GADD34 peptide with a serial dilution of PP1γ catalytic domain; 50 mM HEPES pH 8.0, 500 mM NaCl, 0.05% TWEEN-20; 27 °C; one-site binding model. The settings on record: both partners purified.
For assay [5] the target is unchanged. Put plainly: fluorescence polarisation; competition: increasing pUL21 added to a pre-formed complex of 2 nM FITC-GADD34 peptide and 250 nM PP1γ catalytic domain; Tris pH 8.5 in place of HEPES pH 8. The settings on record: both partners purified. For orientation: In fluorescence polarisation assays a small probe gives low polarisation when free and higher when bound to something large.

For assay [6], the target named is T2, PP1γ catalytic domain : GADD34 peptide pre-formed complex (Mus musculus, UniProt P63087).
T2 construct: mouse PP1γ catalytic domain (residues 7–300)-H6; His6 (C); made in house; host or cells: E. coli T7 Express lysY/Iq (PP1γ); tracer peptide synthesised by GenScript
T2 sequence (P63087 7-300, one chain of several): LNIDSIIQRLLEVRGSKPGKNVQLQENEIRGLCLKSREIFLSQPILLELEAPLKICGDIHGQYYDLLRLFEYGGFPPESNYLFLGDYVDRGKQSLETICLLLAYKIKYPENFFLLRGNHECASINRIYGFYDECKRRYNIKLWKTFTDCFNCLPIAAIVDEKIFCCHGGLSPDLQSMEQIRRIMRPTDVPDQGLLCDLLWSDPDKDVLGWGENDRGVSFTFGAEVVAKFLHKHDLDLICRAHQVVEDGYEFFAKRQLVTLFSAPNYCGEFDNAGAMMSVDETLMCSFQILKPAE
In words: Competition fluorescence anisotropy in Tris pH 8.5 buffer. The settings on record: 2 nM fluorescent GADD34 peptide + 250 nM PP1γ. The format is binding. On the procedure: Similar competition fluorescence anisotropy experiments with purified full-length pUL21 (Fig. 5E) were performed in a buffer optimized to enhance solubility of the protein (Tris pH 8.5 in place of HEPES pH 8). […] To test whether optimization of the TROPPO sequence to better match a canonical RVxF motif could enhance binding, we generated, expressed and purified a pUL21-H6 mutant where residues A237 and V239 had been substituted for valine and phenylalanine, respectively (pUL21-RVxF, Fig. 5E).
Bacterial expression plasmids encoding the mouse PP1γ catalytic domain (residues 7–300)-H6 and pUL21-H6, and mammalian expression vectors encoding pUL21(FV242AA)-GFP, pORF38-GFP and pORF38(FV255AA)-GFP, were described previously ([23]). We note that the mouse and human PP1γ catalytic domains share 100% amino acid identity. pORF38-NLT-H6 was generated by sub-cloning residues 1 to 263 of ORF38 into the vector pOPTnH ([52]). pUL21-RVxF-H6 was generated by inserting the mutations A237V and V239F into pUL21-H6 by QuikChange site-directed mutagenesis. Human PP1α was cloned from HeLa cell cDNA into a vector derived from pF5K (Promega) with an N-terminal Myc epitope tag via restriction-based cloning, and point mutations were introduced into Myc-PP1α by QuikChange mutagenesis. […]
Proteins were expressed using E. coli T7 Express lysY/I^q cells (New England Biolabs) grown in 2 × TY medium at 37 °C to OD600 0.8 to 1.2 before cooling to 22 °C and induction of protein expression using 0.4 mM IPTG. […] Fractions were analysed by SDS-PAGE and those containing the desired protein were pooled, concentrated using centrifugal concentrators (Millipore) and stored at 4 °C (short-term) or snap-frozen in liquid nitrogen for long-term storage at −70 °C.
Fluorescence anisotropy was measured using a SpectraMax i3 microplate reader (Molecular Devices) with wavelengths 485 ± 20 nm (excitation) and 535 ± 25 nm (emission). […]

Entries after “also recorded” stand apart in the source; their conditions may differ. Primed or numbered codes have the meaning given here. Where no end group is shown, it is not given here. FITC′ = fluorescein isothiocyanate; Ahx = NCCCCCC(=O)O

T1 sequence (P63087 7-300): as the sequence (P63087 7-300, one chain of several) above

B1: pORF38-NLT-H6 (domain or fragment)
chain: MEFPYHSTVSYNGVTFYFNERATRAYFICGGCLISIPRKHGGEIAKFGHVVRGVGPGDRSVASYVRSELNRTGKTWAVSSNNNCVFLDRVALLAAGSGAVDRDLCGTFDVEVEDPTLADYLVSLPVTHLTLVAGVDVTRENKLKLFPTPTAINTTNGFMYVPNEASFSLVYMRMLELPESLQELVSGLFDGTPEIRDALNGSNDDEKTSIIVSRRAADVVTEDVKADDVPISGEPYSEKQPRRRKKSDHITLSNFVQIRTIPR
notes: VZV pORF38 residues 1-263: N-terminal domain plus linker up to the end of the TROPPO motif (NLT region); Sub-cloned into the vector pOPTnH; also called pOPF38-NLT; source: E. coli T7 Express lysY/Iq, purified (Ni-NTA, SEC); not shown: His6, C-terminal, kept
In general, Kd refers to the constant that tells how readily two partners part at equilibrium. A higher Kd goes with a looser complex. The term stoichiometry N denotes a count of units in the complex or per binding partner. The term IC50 denotes the concentration that gives 50% inhibition. Higher therefore signals weaker potency in that assay. Turning to B1, in assay [1], the dissociation constant Kd came to 497 nM and the “stoichiometry N” value was determined as 1. For the same molecule, the IC50 in assay [2] came out at 417 nM.

B2: GADD34 RVxF+ϕϕ[xF] peptide (residues 552–568), FITC-labelled (peptide)
peptide: {FITC′-Ahx}-KARKVRFSEKVTVHFLA
notes: GADD34 (PP1 regulatory subunit 15A), residues 552-568, RVxF and ϕϕ[xF] motifs; also called fluorescent GADD34 peptide; GADD34 peptide; source: synthetic peptide (GenScript, >95% purity)
Consider B2, for which the Kd in assay [3] is 55 nM; in assay [4], 144 nM.

B3: pUL21-RVxF-H6 (natural protein)
chain: MELSYATTMHYRDVVFYVTTDRNRAYFVCGGCVYSVGRPCASQPGEIAKFGLVVRGTGPDDRVVANYVRSELRQRGLQDVRPIGEDEVFLDSVCLLNPNVSSELDVINTNDVEVLDECLAEYCTSLRTSPGVLISGLRVRAQDRIIELFEHPTIVNVSSHFVYTPSPYVFALAQAHLPRLPSSLEALVSGLFDGIPAPRQPLDAHNPRTDVVITGRRAPRPIAGSGAGSGGAGAKRVTFSEFVQVKHIDRVGPAGVSPAPPPNNTDSSSLVPGAQDSAPPGPTLRELWWVFYAADRALEEPRADSGLTREEVRAVRGFREQAWKLFGSAGAPRAFIGAALGLSPLQKLAVYYYIIHRERRLSPFPALVRLVGRYTQRHGLYVPRPDDPVLADAINGLFRDALAAGTTAEQLLMFDLLPPKDVPVGSDVQADSTALLRFIESQRLAVPGGVISPEHVAYLGAFLSVLYAGRGRMSAATHTARLTGVTSLVLAVGDVDRLSAFDRGAAGAASRTRAAGYLDVLLTVRLARSQHGQSV
notes: methods, results and legend print V239F; also called pUL21 A237V + V239F (RVxF) mutant; source: E. coli T7 Express lysY/Iq, purified (Ni-NTA, SEC); not shown: His6, C-terminal, kept
On to B3, for which, in assay [5], the IC50 stood at 337 nM.

B4: pUL21-RVxF: pUL21-H6 with mutations A237V and V239F (protein)
chain: MELSYATTMHYRDVVFYVTTDRNRAYFVCGGCVYSVGRPCASQPGEIAKFGLVVRGTGPDDRVVANYVRSELRQRGLQDVRPIGEDEVFLDSVCLLNPNVSSELDVINTNDVEVLDECLAEYCTSLRTSPGVLISGLRVRAQDRIIELFEHPTIVNVSSHFVYTPSPYVFALAQAHLPRLPSSLEALVSGLFDGIPAPRQPLDAHNPRTDVVITGRRAPRPIAGSGAGSGGAGAKRVTFSEFVQVKHIDRVGPAGVSPAPPPNNTDSSSLVPGAQDSAPPGPTLRELWWVFYAADRALEEPRADSGLTREEVRAVRGFREQAWKLFGSAGAPRAFIGAALGLSPLQKLAVYYYIIHRERRLSPFPALVRLVGRYTQRHGLYVPRPDDPVLADAINGLFRDALAAGTTAEQLLMFDLLPPKDVPVGSDVQADSTALLRFIESQRLAVPGGVISPEHVAYLGAFLSVLYAGRGRMSAATHTARLTGVTSLVLAVGDVDRLSAFDRGAAGAASRTRAAGYLDVLLTVRLARSQHGQSV
modifications: left off: His6, C-terminal, kept
notes: pUL21-H6 with mutations A237V and V239F
In the case of B4, in assay [6], the “Competition with GADD34 peptide for PP1 binding” value is on record as “competes with the GADD34 peptide for binding to the PP1 hydrophobic groove; also recorded: the ability to compete with the GADD34 peptide for PP1 binding”.

B5: Full-length pUL21: purified full-length HSV-1 pUL21 (protein)
chain: MELSYATTMHYRDVVFYVTTDRNRAYFVCGGCVYSVGRPCASQPGEIAKFGLVVRGTGPDDRVVANYVRSELRQRGLQDVRPIGEDEVFLDSVCLLNPNVSSELDVINTNDVEVLDECLAEYCTSLRTSPGVLISGLRVRAQDRIIELFEHPTIVNVSSHFVYTPSPYVFALAQAHLPRLPSSLEALVSGLFDGIPAPRQPLDAHNPRTDVVITGRRAPRPIAGSGAGSGGAGAKRATVSEFVQVKHIDRVGPAGVSPAPPPNNTDSSSLVPGAQDSAPPGPTLRELWWVFYAADRALEEPRADSGLTREEVRAVRGFREQAWKLFGSAGAPRAFIGAALGLSPLQKLAVYYYIIHRERRLSPFPALVRLVGRYTQRHGLYVPRPDDPVLADAINGLFRDALAAGTTAEQLLMFDLLPPKDVPVGSDVQADSTALLRFIESQRLAVPGGVISPEHVAYLGAFLSVLYAGRGRMSAATHTARLTGVTSLVLAVGDVDRLSAFDRGAAGAASRTRAAGYLDVLLTVRLARSQHGQSV
modifications: left off: His6, C-terminal, kept
notes: purified full-length HSV-1 pUL21
For the molecule B5, the “Competition with GADD34 peptide for PP1 binding” value in assay [6] is “unable to out-compete GADD34 for binding to PP1”; in assay [6] (listed as wild-type pUL21), “cannot displace a GADD34 RVxF- and ϕϕ[xF]-containing peptide from PP1”.

(Values after publication PMC12723162, “Alphaherpesvirus pUL21 homologs use non-canonical sequences to compete with cellular adaptors for protein phosphatase 1 binding” (The Journal of Biological Chemistry, 2025).)
